{"source": "paper PMC3431187", "about": "(Molecular cell, 2012)", "binders": {"B1": {"name": "rhophilin 2-PDZ (PDZ domain of rhophilin-2), wild type (domain or fragment, human, UniProt Q8IUC4 515-593, looked up)", "chain": "RSIRFTAEEGDLGFTLRGNAPVQVHFLDPYCSASVAGAREGDYIVSIQLVDCKWLTLSEVMKLLKSFGEDEIEMKVVSL"}, "B2": {"name": "F-Ahx-EYLGLDVPV (N-fluorescein-labeled ErbB2 C-terminal peptide) (peptide)", "peptide": "{fluorescein-Ahx}-EYLGLDVPV"}}, "key": {"[1]": {"target": "other peptides (tested with rhophilin 2-PDZ, Table S4)", "experiment": "fluorescence polarisation"}, "[2]": {"target": "B2", "experiment": "fluorescence polarisation"}, "[3]": {"target": "B1", "experiment": "fluorescence polarisation"}, "[4]": {"target": "B1", "experiment": "pull-down"}, "[5]": {"target": "T1, rhophilin 2-PDZ K576A/K579A (human, UniProt Q8IUC4 515-593, K576A | K579A)", "T1 sequence (looked up)": "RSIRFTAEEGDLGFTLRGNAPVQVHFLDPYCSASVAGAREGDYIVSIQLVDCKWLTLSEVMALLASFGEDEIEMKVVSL", "experiment": "pull-down"}, "[6]": {"target": "T2, rhophilin 2-PDZ K576E/K579E (human, UniProt Q8IUC4 515-593, K576E | K579E)", "T2 sequence (looked up)": "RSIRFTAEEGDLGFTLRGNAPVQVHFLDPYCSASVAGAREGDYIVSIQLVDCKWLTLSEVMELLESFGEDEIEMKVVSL", "experiment": "pull-down"}, "[7]": {"target": "tamalin-PDZ (PDZ domain of tamalin), wild type (mouse, UniProt Q9JJA9 100-186)", "sequence (Q9JJA9 100-186)": "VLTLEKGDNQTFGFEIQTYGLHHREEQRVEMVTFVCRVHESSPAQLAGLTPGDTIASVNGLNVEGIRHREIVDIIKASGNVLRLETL", "experiment": "fluorescence polarisation"}}, "note": "No end group written: not given here. fluorescein = fluorescein label on the N-terminus, attached through a 6-aminohexanoyl (Ahx) spacer; Ahx = NCCCCCC(=O)O"}
{"binder": "B1", "values": [{"measurement": "fold decrease in affinity with PM vesicles against without", "setting": "[1]", "result": "< 1.8", "unit": "fold"}, {"measurement": "fold increase in affinity with PM vesicles against without", "setting": "[2]", "result": 2, "unit": "fold"}]}
{"binder": "B2", "values": [{"measurement": "binding result", "setting": "[3]", "result": "binds"}]}
{"binder": "{GST}-EYLGLDVPV", "note": "[GST-EYLGLDVPV (GST fusion of the C-terminal peptide of ErbB2)]", "values": [{"measurement": "binding result", "setting": "[4]", "result": "binds"}, {"measurement": "binding result", "setting": "[5]", "result": "binds"}, {"measurement": "binding result", "setting": "[6]", "result": "binds"}]}
{"binder": "{fluorescein-Ahx}-IRDYTQSSSSL", "note": "[F-Ahx-IRDYTQSSSSL (N-terminal-fluorescein-labeled mGluR5 C-terminal peptide)]", "values": [{"measurement": "binding result", "setting": "[7]", "result": "binds"}]}
